Experimental data published in publication PMC7921410, “Structure of mammalian Mediator complex reveals Tail module architecture and interaction with a conserved core” (Nature Communications, 2021).

T1: MED16 (mouse (Mus musculus; endogenous in CH12), UniProt Q6PGF3 1-828)
T1 construct: MED16, Mus musculus, endogenous lower Tail subunit of Mediator; source: endogenous, CH12 mouse B lymphoma nuclear extract; immunopurified as part of Mediator (FLAG M2 agarose, FLAG peptide elution)
T1 sequence (looked up): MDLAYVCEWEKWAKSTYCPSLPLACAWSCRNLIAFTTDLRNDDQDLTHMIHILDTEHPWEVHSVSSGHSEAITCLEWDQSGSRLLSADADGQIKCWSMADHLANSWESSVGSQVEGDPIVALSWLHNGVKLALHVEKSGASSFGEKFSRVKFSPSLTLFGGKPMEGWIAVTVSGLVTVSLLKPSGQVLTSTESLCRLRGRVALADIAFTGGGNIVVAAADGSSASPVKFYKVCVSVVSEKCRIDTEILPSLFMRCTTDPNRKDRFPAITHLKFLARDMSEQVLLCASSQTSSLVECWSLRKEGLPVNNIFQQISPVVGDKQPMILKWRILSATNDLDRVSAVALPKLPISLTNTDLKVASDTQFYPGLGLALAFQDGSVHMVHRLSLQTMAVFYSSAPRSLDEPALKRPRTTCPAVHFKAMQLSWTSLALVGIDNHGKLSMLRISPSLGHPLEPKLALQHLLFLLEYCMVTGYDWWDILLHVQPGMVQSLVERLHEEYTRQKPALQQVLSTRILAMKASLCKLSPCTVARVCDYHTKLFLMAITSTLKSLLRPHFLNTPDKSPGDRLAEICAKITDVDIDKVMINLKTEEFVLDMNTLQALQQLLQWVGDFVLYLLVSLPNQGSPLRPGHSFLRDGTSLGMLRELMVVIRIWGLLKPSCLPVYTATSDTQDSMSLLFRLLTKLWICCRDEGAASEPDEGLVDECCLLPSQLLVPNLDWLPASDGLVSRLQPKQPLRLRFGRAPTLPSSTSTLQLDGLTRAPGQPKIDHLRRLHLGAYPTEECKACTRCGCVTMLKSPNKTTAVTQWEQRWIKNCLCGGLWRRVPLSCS

B1: MED15 (natural protein, mouse (Mus musculus; endogenous in CH12), UniProt Q924H2 1-789, looked up)
chain: MDVSGQETDWRSAAFRQKLVSQIEDAMRKAGVAHSKSSKDMESHVFLKAKTRDEYLSLVARLIIHFRDIHNKKSQASVSDPMNALQSLTGGPTPGAAGIGMPPRGPGQSLGGMGGLGAMGQPLPLSGQPPPGTSGMAPHGMAVVSTATPQTQLQLQQVALQQQQQQQQQQQFQQQQAALQQQQQQQQQQQQQQQFQAQQNAMQQQFQAVVQQQQLQQQQQQQHLIKLHHQSQQQQIQQQQLQRMAQLQLQQQQQQQQQQALQAQPPMQQPSMQQPQPPPSQALPQQLSQLHHPQHHQPPPQAQQSPIAQNQPPQIPPQSQSQPLVSQAQALPGPMLYAAQQQLKFVRAPMVVQQPQVQPQVQQVQPQVQPQAAVQAAQSAQMVAPGVQMIAEALAQGGMHVRARFPPTSTMSAGPSSSISLGGQPTTQVSQSSLTMLSSPSPGQQVQTPQSMPPPPQPSPQPGSQPNSNVSSGPAPSPSSFLPSPSPQPSQSPVTARTPQNFSVPSPGPLNTPVNPSSVMSPAGSSQAEEQQYLDKLKQLSKYIEPLRRMINKIDKNEDRKKDLSKMKSLLDILTDPSKRCPLKTLQKCEIALEKLKNDMAVPTPPPPPVLPTKQQDLCQPLLDAVLANIRSPVFNHSLYRTFVPAMMAIHGPPIVSPVVCSRKRRFEEDERQSIPNVLQGEVARLDPKFLVNLDPSHCSNNGTVHLICKLDDKDLPSVPPLELSVPADYPAQSPMWIDRQWQYDANPFLQSVHRCMTSRLLQLPDKHSVTALLNTWAQSIHQACLSAA
notes: MED15, Mus musculus, endogenous lower Tail subunit of Mediator; only the C-terminal portion (from residue 620) is seen in the map; source: endogenous, CH12 mouse B lymphoma nuclear extract; immunopurified as part of Mediator (FLAG M2 agarose, FLAG peptide elution)
B2: MED25 (natural protein, mouse (Mus musculus; endogenous in CH12), UniProt Q8VCB2 1-745, looked up)
chain: MVPGSEGPARAGGLVADVVFVIEGTANLGPYFEELRKHYLLPAIEYFNGGPPAETDFGGDYGGTQYSLVVFNTVDCAPESYVQCHAPTSSAYEFVTWLDGIKFMGGGGESCSLIAEGLSTALQLFDDFKKMREQIGQTHRVCLLICNSPPYLLPAVESTTYSGCTTESLVQKIGERGIHFSIVSPRKLPALRLLFEKAAPPALLEPLQQPADVSQDPRHMVLVRGLVLPVGGSSTSGSLQTKQAVPLPPAPASAATLSAAPPQALPPVPPQYQVPGNLSAAQVAAQNAVEAAKSQKAGLGPRFSPINPLQQAAPGVGPPFSQAPAPPLAPVPPGAPKPPPASQPSLVSTVAPGPVLAAPAQPGAPSLAGTVTPGGVNGPSAAQLGGPALGGQQSVSNKLLAWSGVLEWQEKPKPASVDANTKLTRSLPCQVYVNHGENLKTEQWPQKLIMQLIPQQLLTTLGPLFRNSRMVQFHFTNKDLESLKGLYRIMGNGFAGCVHFPHTAPCEVRVLMLLYSSKKKIFMGLIPYDQSGFVNGIRQVITNHKQVQQQKLEQQRGMGAQQAPPVLGPILEEQARPPQNLLQLRAPQPQPQGAVGASAATGQPQPQGATQAPTGAPQGPPGAAPGPPPSGPILRPQNPGANPQLRSLLLNPAPPQTGVPPPQASLHHLQPPGAPTLLPPHQSMGQPQLGPQLLHPPPAQSWPTQLPQRAPLPGQMLLSGGPRGPVPQPGLQPSVMEDDILMDLI
notes: MED25, Mus musculus, endogenous lower Tail subunit of Mediator; only the N-terminal von Willebrand domain (aa 15-216) is seen in the map; The 3×FLAG tag stands on MED25 only in the MED25-FLAG cell line; in the MED19-FLAG line MED25 is untagged; Images from the datasets were combined for the final map; also called MED25-FLAG; source: endogenous, CH12 mouse B lymphoma nuclear extract; …

Biological target: T1, MED16
Test: cryo-EM structure; endogenous mouse Mediator immunopurified from CH12 nuclear extract through 3×FLAG-MED19 or 3×FLAG-MED25; eluted in 50 mM HEPES pH 7.9, 100 mM KCl, 5% glycerol, 1 mM EDTA, 0.005% NP-40; map at 4.0 Å overall, focused refinement of the MED1 and knob/hook ends (6-10 Å)
Conditions: both partners purified

| Binder | binding result |
| --- | --- |
| B1 | binds |
| B2 | binds |
